From a protein production outcome set (Wang et al. 2014)

Test: label from the status in PepcDB records

| Sequence | protein production |
| --- | --- |
| SESKIACHHTVHGFEQRRGLHSRNEKAMEYVAKGWSAIKEVERVIDYCELNDRRLIPLLRGAKENFELALEADNLNTHARYWLSKLHLKYHVPGACKAVGAALLVEAADMGNADAQYELGCRLRVENDHVQSDQQAFHYIENAVDQLHPGALYLLGIVYLTGDCVKQDVDSAIWCFHRASEKGHAGAAIAYGSLLLRGVQVPESLTKLNVVGVSPPKRARKNLENPEMNPLEMAKEQFQIAARAGCDLGLKWLQRVEQEEKLLMREQDNECAYV | failed |
| SESQDIKALQKELEQFAKLLKQKRITLGYTQADVGLTLGVLFGKVFSQTTICRFEALQLSFKNMCKLRPLLQKWVEEADNNENLQEICKAETLVQARKRKRTSIENRVRGNLENLFLQCPKPTLQQISHIAQQLGLEKDVVRVWFCNRRQKGKRSSSDYAQ | not failed |
| SETQSFVVSVAGSDRVGIVHDFSWALKNISANVESSRMACLGGDFAMIVLVSLNAKDGKLIQSALESALPGFQISTRRASSVAERHVSPDTREYELYVEGPDSEGIVEAVTAVLAKKGANIVELETETLPAPFAGFTLFRMGSRVAFPFPLYQEVVTALSRVEEEFGVDIDLEEVVEGEDSEEDDDSPNSPVGRH | not failed |
| SGCGGSRADAIEPRYYESWTRETESTWLTYTDSDAPPSAAAPDSGPEAGGLHSGMLEDGLPSNGVPRSTAPGGIPNPEKKTNCETQCPNPQSLSSGPLTQKQNGLQTTEAKRDAKRMPAKEVTINVTDSIQQMDRSRRITKNCVN | failed |
| SGCIQSITCKARIRRENIVVYDVCATIDQCPTRIEETSPIVLRYKTPYFKASARVVMPPIPRHETWVVGWIQACNQMEFFNTYSDLGMSSWELPDLREGRVKAISDSDGVSYPWYGNTTETVTLVGPTNKISRFSVSMNDNFYPSVTWAVPVSDSNVPLLTRIKRDQSFTTWLVAMNTTTKEKIILQTIKWRMRVDIEVDPLQLLGQRARLVGRTQQEQPRILSRMEPIPPNALVKPNANDAQVLMWRPKRGPPLVVIPPK | not failed |
| SGGRRSSWIKNWTLWKHFKDYFPIHLIKTQDLDPSHNYIFGFHPHGIMAVGAFGNFSVNYSDFKDLFPGFTSYLHVLPLWFWCPVFREYVMSVGLVSVSKKSVSYMVSKEGGGNISVIVLGGAKESLDAHPGKFTLFIRQRKGFVKIALTHGASLVPVVSFGENELFKQTDNPEGSWIRTVQNKLQKIMGFALPLFHARGVFQYNFGLMTYRKAIHTVVGRPIPVRQTLNPTQEQIEELHQTYMEELRKLFEEHKGKYGIPEHETLVLK | not failed |
| SGTFDSQCHECFESKERWYEIGPTDLLERKGSLTLRSHHKKYSEPVLVYSWHRNREAFPKDYDIESLETVKNLCMSTYKRFGSDSPRWMSEAREQMAQVLVNKDLVEKKKTGLLDEETLCPGILERDPELPPTGFRDVPMESPPDPRKPCFSTTYSEDFTPQYEYPPPACPRREEYSIVHRKCRSQFTDLNGSKRLGINTWHDESGIYANSEAKQKLYALARNPIVPF | failed |
| SIEVRGKIKLGLLPETYEHLQPILFEFQDQYPQVELDIRNINNGFIDMFQQGLDIALHGGMLFDSDIVARKILTLDRCVVASPNYLQTHGTPATLEELSDHQCICFRWPNGNVDNLWHFQEQNVALKPKLISNNIGFIK | failed |
| SKEDTEITIQKIMDAVVDQLLRLGYDKMSYTTLSQQTGVSRTGISHHFPKKTDFTAALDGRIFKMFIEHLEFEKGLDAFSQSWIKALEDSEFLAILRLLFHHIVTSESAHEFAANGIDRLYKMVESQFGSGGDKELEWLIGRSLIQ | failed |
| SKGRPQIDSSKATDKINPMDFTFVEINEAVKLVEMGVATPQDIDTAIKLGLNRPFGPFELAKQFGAEQIAKRLEELAKQFGKKIFEPAKTLKEGKLEELLKAGKAE | not failed |
| SKQDASRNAAYTVDCEDYVHVVEFNPFENGDSGNLIAYGGNNYVVIGTCTFQEEEADVEGIQYKTLRTFHHGVRVDGIAWSPETRLDSLPPVIKFCTSAADMKIRLFTSDLQDKNEYKVLEGHTDFINGLVFDPKEGQEIASVSDDHTCRIWNLEGVQTAHFVLHSPGMSVCWHPEETFKLMVAEKNGTIRFYDLLAQQAILSLESEQVPLMSAHWCLKNTFKVGAVAGNDWLIWDITRSSYPQNKRPVHMDRACLFRWSTISENLFATTGYPGKMASQFQIHHLGHPQPILMGSVAVGSGLSWHRTLPLCVIGGDHKLLFWVTEV | not failed |
| SKSSEKRQAVDTAVDGVFIRSLKVNCKVTSRFAHYVVTSQVVNTANEAREVAFDLEIPKTAFISDFAVTADGNAFIGDIKDKVTA | failed |
| SKYKILVSFSNPESGKTLLKLANGLTKKLNSNASLTALHLSPTNELHHYNIEEYEKEIFDPIIEESQQLNQKVTTIFKASNDINYEVADTANKGDYDLLLVG | failed |
| SLAGETINFCKGWKFHLGDAGKGASSSSYNDSQWRILNIPHDWSIEGTYKQFENGTDWQSGFLPAGISWYRKTFTIPSKWKNKKVQILFEGVYLNSEVWINGHWLGKRPNGYISFVYDLTPYLQEGKNQIAVKVDHSKALTGRWYTGSGIYRPVYLLVSNPTHIPYSGIHFRSKLQNKQSATYTLSIEIETQEKKPIKVKTYLQAPNGSIADTSEKIFVSSADSLCFLSGSIRKPLLWSPDSPNVYTLICQLTRDNKILDECRLPVGFRQLEFNPVSGFLLNGKSLKIKGVCDHHTVGAVGAAVPDDLLHYRLKLLKDMGCNAIRTSHNPFSPAFYNLCDTMGIMVLNEGLDGWNQPKAADDYGNYFDEWWQKDMTDFIKRDRNHPSIIMWSIGNEVTGATPEIQHNLVSLFHQLDPDRPVTQGGTDPTRGMKTDYQKKFNYLDIIGFNGNGEEIGELEHFHKNYPTLCAIATEVPHTYQTRGVYRSQTQWRRRDFPAPWEKGNINWEQFKHRVFPIPDLTEKECFPEESDYPYYQSSYDNASVRISARKSWQRTCSFPWLMGEFRWGSFDYLGEAEWPQRCGNFGIIDIAAIPKDAYFLYQSLWTDKPMVHLLPHWTHPGKEGKTIPVVIYTNCDAVELFINNVSLGSKPYTGEQLIWLVPYSPGKIEARGIKKGKIVATDCYQSAEAPHSVALASNKYSVKAGSDEVIRIEIDITDKNGIPCPYASNELSFHVSGPLRLLGVDNGNPTDMFPYQQPHCRCFRGKCVVLLQSDEEKGKGTLTVQGTKLVEKKLIIEVIEG | not failed |
| SLDSINTRIAEELSALPSGRVQPQQVAAAVALLDEGSTVPFIARYRKEVTGSLDDTQLRMLEERLRYLRELEERRGAILASIEEQGKLTPELARDIKLADTKTRLEDLYLPYKQKRRTKGQIALEAGLGALADALFDDPTLVPESEAARFVDAEKGFADVKAVLEGAKYILMERFAEDATLLDKLRVFMKNEATLTARVVPGKEQEGAKFSDYFEHDEPLKSAPSHRALAIFRGRNEGVLSASLKVGEEAPGTLHPCEVMIAQRFGLSNQGRAADKWLAEVVRWTWKVKLYTHLETDLFGELRDGAEDEAISVFARNLHDLLLAAPAGPRATLGLDPGLRTGVKVAVVDATGKLLDTATVYPHAPKNQWDQTLAVLAALCAKHQVELIAIGNGTASRETDKLAGELIKKYPGMKLTKIMVSEAGASVYSASELAAKEFPELDVSLRGAVSIARRLQDPLAELVKIEPKSIGVGQYQHDVSQLKLARSLDAVVEDCVNAVGVDVNTASAALLARISGLNSTLAQNIVAHRDANGAFRTRDELKKVSRLGEKTFEQAAGFLRVMNGDNPLDASAVHPETYPLVQRIAADTERDIRSLIGDSAFLKRLDPKKFTDETFGLPTVTDILKELDKPGRDPRPEFKTAEFQEGVESLKDLKPGMVLEGVVTNVTNFGAFVDIGVHQDGLVHISALSEKFVKDPYEVVKAGDIVKVKVMEVDIPRNRVGLSMRMSDTPGEKVEGQRGGRPTGSGQPRQERGAPRGQSAPPANNAMAALFANAKQLKKK | not failed |
| SLFVKESHNTSKGPEATWNLNKVHFVYDSSEKTHFKAPVKVNKYIASSHHLSALVTPAGMSYECQAQQTISLASSDPQKTVTMILSAVHIQPFDIISDFVFSEEHKCPVDEQEQLEETLPLILGLILGLVIVITLVIYHIHHKMTANQVQIPRDRSQYKHMG | failed |
| SLLRFSAVSRHHRGASIDPMTFSEATTPDALTPDAHTPRLLTCDVLYTGMGGAQSPGGVVVVGETVAAAGHPDELRRQYPHAAEERAGAVIAPPPVNAHTHLDMSAYEFQALPYFQWIPEVVIRGRHLRGVAAAQAGADTLTRLGAGGVGDIVWAPEVMDALLAREDLSGTLYFEVLNPFPDKADEVFAAARTHLERWRRLERPGLRLGLSPHTPFTVSHRLMRLLSDYAAGEGLPLQIHVAEHPTELEMFRTGGGPLWDNRMPALYPHTLAEVIGREPGPDLTPVRYLDELGVLAARPTLVHMVNVTPDDIARVARAGCAVVTCPRSNHHLECGTFDWPAFAAAGVEVALGTDSVASGETLNVREEVTFARQLYPGLDPRVLVRAAVKGGQRVVGGRTPFLRRGETWQEGFRWELSRDL | not failed |
| SLRHSPSLWELVEEHVPLRERREVKRILGEAAVDLSLELRAEVAMLRALLQEARSSQAPSSRPISDPSSLLAPPPLLKDLLRQELRQLLQGLRHKAICEGRDQAQAWVQYSPRVLHFALEEPRCDLPEQEIFQMRGGGPSSGHRDLSIIKDQLNVSNIDQVARHLRGLLEEECHTLEREILILQRCLEEEYLRPCHPSEAALEPTLAELKEQKKAMEQELQASVGPSCVSPNHRQRPLGSSTQGLRPPLPLCGVAPLQCCLPAPPLEPYLRPRGQSATHRWGRQLQCSPREGPASTPMSSAAPQAPA | not failed |
| SLSEDKMDLYLQQGMYGPLETKPDERHLFLGSLRERVVLALTKGQVLRSKPYKEAEHELKNSHNVTLLINGELQYQSYSSYIQMASRYGVPFKIVSDLQFHTPLGIVIAADIAVNRELIYIQDDIYNRSVLKS | not failed |
| SLSQTTNIKEQTDTGLAPPAPAITTNSAAIEEQANSSIRKLYHTLNTMPNTSMADRISQISAYFKGTKYILGSLGEGPNARYDQFPRYRVDGFDCDTYVNTVLSLALANSLESFQECLKHTRYKNGKRSYINRNHFTSIDWNNYNQKRGLLKDITFSIRNEKKQPVALYANALINKPQWYNHKTIDTIRLQKQDKNEQEKRLVELKAKGKTLETSLSNVPYIPFTALFSENKPNLHLFSQIPNGAVIEIIRPNWDLRQQIGTELDISHLGFAIWINNELFFRQASSQYGKVVDVSLIDYLDKARSSPTIKGINIQVVLPEKPVSNGCQLFDIR | not failed |
| SLSSKDKDTVKALWGKIADKAEEIGSDALSRMLAVYPQTKTYFSHWKDLSPGSAPVNKHGKTIMGGIVDAVASIDDLNAGLLALSELHAFTLRVDPANFKILSHCILVLLAVKFPKDFTPEVHISYDKFFSALARALAEKYR | not failed |
| SNQLQQLQNPGESPPVHPFVAPLSYLLGTWRGQGEGEYPTIPSFRYGEEIRFSHSGKPVIAYTQKTWKLESGAPMHAESGYFRPRPDGSIEVVIAQSTGLVEVQKGTYNVDEQSIKLKSDLVGNASKVKEISREFELVDGKLSYVVRMSTTTNPLQPHLKAILDKL | not failed |
| SNSHDGSNFSNKFSAHKDVVEDLLRKDTVGLVTFQDFRARREYLERCAVAEAACQNASRRAEELETKKKRVKRANLSRLSFGDSLEDQEENSVEFAKITRFASSKKANGVGFNTSGQDIVKEPDVFSPKEEGFFGKQNRKIGMDPGVDTSFLPDRDREQEERLERERLKQQWLSEQERVKNEEIDIIYSIWDGRGQRKLLSCKKGTTIAKFLSIVQQKVSTLKHCKVEDLMFIKEDMIIPHHLSFYDLISMKARGKNGSLFCFDVHEDIRIRNDASVEKDDSHAAKVVERRWYERNKHIYPASMWEVFDVSKNYGRVQKDFFGN | failed |
| SPLPVALQTRLAKRGILKHLEPEPEEEIIAEDYDDDPVDYEATRLEGLPPSWYKVFDPSCGLPYYWNADTDLVSWLSPHDPNSVVTKSAKKLRSSNADAEEKLDRSHDKSDRGHDKSDRSHEKLDRGHDKSDRGHDKSDRDRERGYDKVDRERERDRERDRDRGYDKADREEGKERRHHRREELAPYPKSKKAVSRKDEELDPMDPSSYSDAPRGTWSTGLPKRNEAKTGADTTAAGPLFQQRPYPSPGAVLRANAEASRTKQQD | not failed |
